According to IntAct's records for PubMed 23452855:

B1: F-box/LRR-repeat protein 21 (Mus musculus), Q8BFZ4 (parent)
chain: MKRNNFSAVNKVVQSSPVVKQPKRGLCSSLRQTHALSVLLDWGTLPHHVILQIFQYLPLIDRARASSVCRRWNEVFHIPDLWRKFEFELNQSATSYFKSTHPDLIQQIIKKHAAHLQYVSFKVDSSTESAEAACDILSQLVNCSIQTLGLISTAKPSFMNVPKSHFVSALTVVFVNSKSLSSIKIEDTPVDDPSLKILVANNSDTLRLLKMSSCPHVSSDGILCVADHCQGLRELALNYYILSDEILLALSSETHVNLEHLRIDVVSENPGQIKFHSIKKRSWDALIKHSPRVNVVMYFFLYEEEFEAFFKEETPVTHLYFGRSVSRAILGRIGLNCPRLIELVVCANGLLPLDSELIRIAKHCKNLTSLGLSECEVSCSAFVEFVRLCGRRLTQLSIMEEVLVPDDRYTPDEVHTEVSKHLGRVWFPDVMPIW
partner: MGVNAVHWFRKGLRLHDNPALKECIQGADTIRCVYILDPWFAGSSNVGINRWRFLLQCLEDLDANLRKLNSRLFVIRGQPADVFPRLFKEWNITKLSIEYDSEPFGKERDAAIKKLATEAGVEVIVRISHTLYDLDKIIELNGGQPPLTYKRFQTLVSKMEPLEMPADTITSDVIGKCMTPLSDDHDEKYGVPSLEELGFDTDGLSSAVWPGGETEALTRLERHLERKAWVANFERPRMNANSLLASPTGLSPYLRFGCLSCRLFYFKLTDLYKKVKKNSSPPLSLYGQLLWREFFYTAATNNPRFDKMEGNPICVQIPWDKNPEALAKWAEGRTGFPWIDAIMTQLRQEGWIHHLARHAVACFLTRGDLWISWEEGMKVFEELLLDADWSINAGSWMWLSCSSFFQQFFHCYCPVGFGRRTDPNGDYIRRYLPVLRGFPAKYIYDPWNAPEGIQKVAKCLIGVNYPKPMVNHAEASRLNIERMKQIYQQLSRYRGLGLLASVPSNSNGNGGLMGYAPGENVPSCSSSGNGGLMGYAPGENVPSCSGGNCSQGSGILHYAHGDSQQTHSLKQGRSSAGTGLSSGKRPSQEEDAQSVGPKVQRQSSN

Variants of: B1
Conditions: with cry1_mouse Cry1, P97784

| Variant | effect of a mutation on the interaction |
| --- | --- |
| MKRNNFSAVNKVVQSSPVVKQPKRGLCSSLRQTHALSVLLDWGTLPHHVILQIFQYLPLIDRARASSVCRRWNEVFHIPDLWRKFEFELNQSATSYFKSTHPDLIQQIIKKHAAHLQYVSFKVDSSTESAEAACDILSQLVNCSIQTLELISTAKPSFMNVPKSHFVSALTVVFVNSKSLSSIKIEDTPVDDPSLKILVANNSDTLRLLKMSSCPHVSSDGILCVADHCQGLRELALNYYILSDEILLALSSETHVNLEHLRIDVVSENPGQIKFHSIKKRSWDALIKHSPRVNVVMYFFLYEEEFEAFFKEETPVTHLYFGRSVSRAILGRIGLNCPRLIELVVCANGLLPLDSELIRIAKHCKNLTSLGLSECEVSCSAFVEFVRLCGRRLTQLSIMEEVLVPDDRYTPDEVHTEVSKHLGRVWFPDVMPIW [G149E] | decreasing interaction strength |
